experiment: yeast display, Sf9 membrane polyspecificity reagent, FACS + sequencing; frameworks hold sequencing errors
In short: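 In a synthetic yeast display library (Saccharomyces cerevisiae BJ5465), nanobody expression was induced with galactose for 36–48 hours. FACS gates were set low and high (top ~1%) using anti-HA fluorescence for expression and streptavidin fluorescence for binding of the Sf9 membrane reagent. Each polyreactivity label is drawn from the gate of origin.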

Sequence | polyreactivity (PSR sort gate)
QVQLVESGGGLVQAGGTLRLSCAASGRIFSGYVMGWYRPAPGKERELVAVISRSGGSTYYADSVKGRFTISRDNAKNTVYLQMNSLKPEDTAVDYCAAKHIDGSRGYDYWGQGTQVTVSS | low polyreactivity
QVQLVESGGGLVQAGGSLRLSCAASGFTFNRYAMGWYRQAPGKERELVARITRGGSTKYADSVKGRFTISRDNAKNTVYLQMNSLKPEDTAVYYCAADYGGFLGYDYWGQGTQVTVSS | high polyreactivity
QVQLVESGGGLVQAGGSLRLSCAASGRTFQYYAMGWYRQAPGKERELVAAISWSGARTYYADSVKGRFTISRDNAKNTVYLQMNSLKPEDTAVYYCAADRYWISLWYIMGYWGQGTQVTVSS | high polyreactivity
QVQLVESGGGLVQAGGSLRLSCAASGYIFLVYAMGRSRHAPRKERELVASITRGTRTYYADSVKGRFTISRDNAKNTVYLQMNILKPEDSAVYYCAASQNIRDWFRFGYGSWGQGTQVTVSS | low polyreactivity
QVQLVESGGGLVQAGGSLRLSCAASGSTFVIYAMGWYRQAPGKERELVASIRGRTGSTYYADSVKGRFTISRDNAKNTVYSQLNSLKPEDTAVYYCAAKPGYKSKMDYWGQGTQVTVSS | high polyreactivity
QVQLVESGGGLVQAGGSLRLSCAASGSTFYYYAMGWYRQAPGKERELVAAISVRAGITYYADSVKGRFTISRDNAKNTVYLQMNSLKPEDTAVYYCAKDHWTTSSDEGDYWGQGTQVTVSS | low polyreactivity
QVQLVESVGGLVQAGGSLRLSCAASGGMGWYRQAPGKERELVATISSVGSTNYADSVKGRFTISRDNAKNTVYLQMNSLKPEDTAVYYCNATGVQYFLYGYWGQGTQVTVSS | low polyreactivity
QVQLVESGGGIVQAGGSLRLLCAASGRIFTGNVMGWYRQAPGKERVLVAAISYGGGSTNYADSVKGRFTISRDNAKNTVSLQMNSLIPEDTAVYYCAVLYGYRSSSRYGYDSWGQGSQVTVSS | high polyreactivity
QDQLVESGGGLVQAGGSLRLSCAAYGYTFPWYAMGWYRQAPGKERELVAAISDTGTTNYADSVKGRFTISRDNAKNTVYLQMNSLKPEDTAVYYCNAKVTSYWYYPFNYWGQGTQVTVSS | low polyreactivity
QVQLVESGGGLVQAGGSLRLICAASGRTFSGNTMGWYRQAPGKERELVAAITGRGGSTYYADSVKGRFTISRDNAKNTVYLQMNSLKPEDTAVYYCAALRYTFAGRFDYWGHGTQVTVSS | high polyreactivity
QVQLVDSGGGLVQAGGSLRLSCAASGRIFYSYAMGWYRQAPGKERELVAAISRSGGRTYYADSVKARFTISRDNAKNTVYFQMNSLKPEDTAVYYCAADGRVGEEEYWGQGTQVTVSS | high polyreactivity
QVQLVESGGGLVQAGGSLRLSCAASGSIFYVNAMGWYRQAPGKERELVAVNADSVKGRFTISRDNAKNTVYLQMNSLKPEDTAVYYCAAGVNSTTRIYDYWGQGTQVTVSS | low polyreactivity
QVQLVESGGGLVQAGGSLRLSCAASGSIFAHYAMGWYRQAPGKERELVAAISWGGGRTYYADSVKGRFTISRDNAKNTVYLQMNSLKPEDTAVYYCAARAANKSNYWGQGTQVTVSS | low polyreactivity
QVQLVESGGGLVQAGGSLRLSCSASGSIFYTYAMGWYRQAPGKERELVAAISRSGGITYYADSVKGRFTISRDNAKNTVYLEMNSLKPEDTAVYFCNVASASPGRYDYWGQGTQVTLSS | high polyreactivity
QVQLVESGGGLVQAGGSLRLSCAASGITFEYYAMGWYRQAPGKERELVAAIDTGGSTNYADSVKGRFTISRDNAKNTVYLQMNSLKPEDTAVYYCAADWSWWDGEDYHFEVDYWGQGTQVTVSS | low polyreactivity
QVQLVESGGGLVQAGGSHRLSCAASGFIFRWYAMGWYRQAPGKERELVAAISRSGDSTYYADSVKGRFTISRDNAKNTVYLQMNSLKPDDTAVYYCAADDRYYTYGYDYWGQGTQVTVSS | low polyreactivity
QVQLVESGGGLVQAGGSLRLSCAASGFTFYKYAIGWYRQAPGKERELVAGIRRGGTNYADSVKGRFTISRDNAKNTVFLQMNSLKPEDTAVYYCAADVRPYYSAYRGRYYYWGQGTQVTVSS | high polyreactivity
QVQLVESGGGLVQAGGSLRLSCAASGFTFYPYAMGWYRQAPGKERELVAIRSDGSTYYADSVKGRFTISRDNAKNTVYLQMNCLKPEDTAVYYCNTEPSRDSYSLYFQTRGDYWGQGTQVTVSS | low polyreactivity
QVKLVESGGGLVQAGGSLRLSCAASGSTYWQYSMGWYRHAPGKEREFVAAISSRGGSTYYADSVKGRFTISRDNAKNTVYLQMNSLKPEDTAVYYFAAKNYFAFIRTYRYVHRPTYYYWGQGTQVTVSS | high polyreactivity
QVQLVDSGGGLVQAGGSLRLSCAASGRNFARYSMGWYRQAPGTERELVAAISWCGTSTYYADSVKGRYTISRDNAKNTVYLQMNSLKPEDTAVYYCAATYLYRDQPKWGGFAYTYGHWGQGTQVTVSS | high polyreactivity
QVQLVESGGGLVQAGGSLRLSFAASGRIFAYYVMGWYRQAPGKARELVAAITGSGGSTYYADSVKGRFTISRDNAKNTVYLQMNSLKPEDTAVYYCNADFVWRGDYWGQGTQVTVSS | low polyreactivity
QDQLVESGGGLVQAGGSLRLSCAASGRIFGWYAMGWYRQAPGKERELVAAISNDGSTNYADSVKGRFTISRDNAKNTVYLQMNSLKPEDTAVYYSAARFYRSSYGWYGYWGQGTQVTVSS | high polyreactivity

Sequence | polyreactivity (PSR sort gate)
QVQLVESGGGLVQEGGSLRLICAASGRTFYINDMGWYRQAPGKEREFVAAITWSGGSTYYADSVKGRFTISRDNAKNTVYLQMNSLKPEDTAVYYCARPYRGSPRYYYWGQGTQVTVSS | high polyreactivity
QVQIVESGGGLVQAGGSLRLSCAASGRTFAGNAMGWYRQAPGKERELVAGISSGGSTNNADSVKGRFTISRDNAKNTVYLQMNSLNPEDTAVYYCAKRYFRKGYPLFHYAYGYWGQGTQVTVSS | high polyreactivity
QVQLVESGGGLVQAGGSLRLSSAGSGSTLGFNAMGWYRQAPGKEREFVAGNSASGSSTYFADSVKGRFTISRDNAKNTVYLHINSLKTEDSAVYYFYARVRVRLGRNWSTYYYWGQGTEVTVSS | high polyreactivity
QVQLVESGGGLVQAGGSLRLSCAASGRIFWVNVMGWSRQAPGKERELVAAITRGASTYADSVKGRFTISRDNAKNTVYLQMNSLKPEDTAVYYCAADTKRRSIRYDYWGQGTQVTVSS | high polyreactivity
QVQLVESGGGLVQAGGSLRLSCAASGITFSWNAMGRYRQAPGKERELVASITENTGCTYYADSVKGRFTISRDNAKNTVYLQMNSLKPEDTAVDYCWYTQNTLGNYWGQGTQVTVSS | low polyreactivity
QVQLVESGGGLVQAGGSLRLSCAASGRTVYRYAMGWYRQAPGKERELVAAITGSGSSTYYADSVKGRFTISRDNAKNTVYLQMNSLKPEDTAVYYCAAARPRLGSAGKFGYWGQGTQVTVSS | high polyreactivity
QVQLVESGGGLVQAGGSLRLSCAASGSIFSFYTMGWYRQAPGKERELVAAINWSGSRTYYADSVKGRFTISRDNAKKTVYLQMNSLNPEDTAVYYCAARKYYSRAYDYWGQGTQVTVSS | high polyreactivity
QVQLVESGGGLVQAGGSLRLSCAASGRTFYIYAMGWYRQAPGKERELVAAITYGGGRTFYADSVKGRFTISRDNAKNTVYLQMNSLKPEDTAVYYCARGDFYYHSRYTYYTSDYWGQGTQVTVSS | high polyreactivity
QVQLVESGGGLVQAGGSLRLSCAASGIIFYGNAMGWYRPAPGKERELVAAISWTTDSTYADSVKGRFTISRDNAKNTVYLQMNSLKPEDTAVYYCNARNGSEFLANDLFTHEYDYWGQGTQVTVSS | low polyreactivity
QVQLVESGGGLVQAGGSLRLSCAASGSIFDHYVMGWYRQSPGKERELVAAITSGDRTNYADSVKGRFTISRDNAKNTVYLQMNSLKPEDTAVYYCNADYQSYFYYTTWYYEYDYWGQGTQVTVSS | low polyreactivity
QVQLVESGGGLVQAGGSLRLSCAASGSTFHYYVMGWYRQAPGKERELDAAIRRSGGTTYYADSVKGRFTISRDNAKNTVYLQMNSLKPEDTAVYYCAAYFFHYHFYQAAYDYWGQGTQVTVSS | low polyreactivity
QVQLVESGGGLVQAGGSLRLSCAASGRIFYKYALGGYRQAPGKERELVAAISYSGGSTYYADSVKGRFTISRDNAKNTVYLQMKSLKPEDNAVYYCNAKPPFGVRSWGDYWGQGTQVTVSS | low polyreactivity
QVQLVESGGGLVQAGGSLRLSCAASGSIFYGYAMGWYRQAAGKERELVARITGSGGDTSYADSVKGRFTISRDNSKNTVYLQMNSLKPEDTALYYCNTDLYITYTLYTGSEYDYWGQGTQVTVSS | low polyreactivity
QVHLVESGGGLVQAGGTLRLSCAASGFTFRIYAMGWYIQAPGKERELVATISWSGTSTYYADSVKGRFTISRDNAKNTVYLQMNSLKPEDTAVYYCAKDGVSVYWLNKYYYWGQGTQVTVSS | low polyreactivity
QVQLVESGGGLVQAGGSLRLSCAASGRTFSNYAMGWYRQAPGKERELVAAIRSGVRTYYADSVKGRFTISRDNAKNTVYLQMNSLKPEDTAVYYCAVATGLLYKSHGYWGQGTQVTVSS | low polyreactivity
QVQLLESGGGFVQEGGSLRLICAASGLTFYYNAMGWYRQAPGTERELVAAISFSGGRTYYADSVKGRFTISRDNAQNTVYLQMNSLKPEDTAVYYCAARVPRYRKDSVWAYYYWGQGTQVTVSS | high polyreactivity
QVQLVESGGGLVQAGGSLRLSCAASGITIRRYAMGWYRQAPGKERELVAAISTSGGGTYYADSVKGRFTISRDNAKNTVYLQMNSLKPEDTAVYYCAARYLGYLLSGYPPYDYWGQGSQVTVSS | high polyreactivity
QVQLVESGGGLVQAGGSLRLSCAASGRILLTYAMGWYRPAPGKERELVAAISSDSRTYYADSVKGRFTISRDNAQNTVYLQMNSLKPEDTAVYYCVRRRYKYDYWGQGTQVTVSS | low polyreactivity
QVQRVESGGGLVQAGGSLRLSCAASGSTFVGYAMGWYRQAPGKERELVAAINDSGGSTYYADSVKGRFTISRDNAKNTVYLQMNSLKPEDTAVYYCAADSSGTSWYTFDYWGQRTQVTVSS | low polyreactivity
QVQLVESGGGLVQAGGSLRLSCAASGLTFQWYTMGWYRQAPGKERELVAAISSRGGSTYYADSVKGRFTISRDNAKNTVYLQMNSLKPEDTAVYYCAVRLRWYFFLMDYWGQGTQVTVSS | high polyreactivity
QVQLVESGGGLVQAGGSLRLSCAASGRISSNVMGWYRQAPGKERELVAAISVSGARTYYADSVKGRFTISRDNAKNTVYLQMNSLKPEDTAVYDCAAVYGGVYYGGDYWGQGTQVTVSS | high polyreactivity
